# Measured values reported in the DeepSol protein solubility set.
# Assay: soluble on expression in E. coli; label from the status in PepcDB or PDB records
row,Sequence,soluble on expression in E. coli
1,MAMQIKGVIFDFDGTLLDSVELRITAWKKAFQNFGVNVPEDLIRPMIGYPGIDLAKKFVKNPLDVEMLQEDYFLKNIESAKFFQDVIPTLAELRKRGIKTAVVTSTRRIVMQKFSLQVDHVVTIDDVSKGKPDPEPYLKALKMMGIPAEECIVVGDIENDLIPAKKLRCISVLVKHGRDISSNYADYEIENIADILNVIDHLAEKNNR,not soluble
2,MAMSFEWPWQYRFPPFFTLQPNVDTRQKQLAAWCSLVLSFCRLHKQSSMTVMEAQESPLFNNVKLQRKLPVESIQIVLEELRKKGNLEWLDKSKSSFLIMWRRPEEWGKLIYQWVSRSGQNNSVFTLYELTNGEDTEDEEFHGLDEATLLRALQALQQEHKAEIITVSDGRGVKFF,soluble
3,MAMTGVLRPGHAQVRVLNLEEGIHFYRNVLGLVETGRDDQGRVYFKCWDERDHSCYIIREADTAGIDFFGFKVLDKATLEKLDADLQAYGLTTTRIPAGEMLETGERVRFELPSGHLIELYAEKTCVGNGISEVNPAPWNAQREHGIAPIQLDHCLLYGPNIAEVQKIFTEVLGFYLVERVLSPDGDSDMGIWLSCSHKVHDIAFVEYPEKGKLHHCSFLLESWEQVLRAGDIMSMNEVNVDIGPTRHGVTRGCTIYAWDPSGNRFETFMGGYHPYPDYEPLSWTYDNFAQGLDYPQRKLHETFMTVVT,soluble
4,MANDEQQQLLNKIVRDDSQDKQVLLMINGAAGTGKTFLIKLIENSMNRSVRKRVVLMTGSTGKAAKAIGGRTLHCTIGLPNEKPEDLERLKYQAFICVTTRLIIIDEITLLASWHLDATDMVLKRTPKRTDALFGGLSIILVGDLRQLNLGGWRGKKQIDTVFIKVGGYPDPISCQNVCD,not soluble
5,MANEVIKCKAAVAWEAGKPLSIEEIEVAPPKAHEVRIKIIATAVCHTDAYTLSGADPEGCFPVILGHEGAGIVESVGEGVTKLKAGDTVIPLYIPQCGECKFCLNPKTNLCQKIRVTQGKGLMPDGTSRFTCKGKTILHYMGTSTFSEYTVVADISVAKIDPLAPLDKVCLLGCGISTGYGAAVNTAKLEPGSVCAVFGLGGVGLAVIMGCKVAGASRIIGVDINKDKFARAKEFGATECINPQDFSKPIQEVLIEMTDGGVDYSFECIGNVKVMRAALEACHKGWGVSVVVGVAASGEEIATRPFQLVTGRTWKGTAFGGWKSVESVPKLVSEYMSKKIKVDEFVTHNLSFDEINKAFELMHSGKSIRTVVKI,soluble
6,MANFESSVKVIPYSQERVYAKLSDLSNLESVKGRLPEDKIQDLSFDSDTLSFSVSPIGQLTLQIVEREPCKCIKLATTNSPLPFNMWIQLVSTAEEECKLKVTISMDINPFMKAMVQKPLQDGLEKMVEMLSMINYLEHHHHHH,soluble
7,MANFIIELSADESFNIVINDLKPIETYRVEMFLSDYYCINAPMRLAHDVLWKSTATFVSDTNGIINISQTPSCSGSYEGISTMGLFFNAKPLTNKRKKLPNSISKIPLLDHFFVGIKIMQGNTVIAERTFTRHYMSSQISHQDIYGKHFQGRLFYDKKAIKTPSIDYCER,not soluble
8,MANHELDQLRKQVDEINLQLLHLLNKRGEIVQKIGEQKQVQGTKRFDPVREREVLDMIAENNEGPFETSTVQHIFKTIFKASLELQEDDNRKALLVSRKKKQENTIVDVKGELIGNGTQTFIMGPCAVESLEQVRQVGQAMKDQGLKLMRGGAFKPRTSPYDFQGLGVEGLQILRQVADEFDLAIISEILNPNDVEMALDYVDVIQVGARNMQNFDLLRAVGKVNKPVLLKRGLAATIDEFINAAEYIIAQGNDQIILCERGIRTYERATRNTLDISAVPILKKETHLPVVVDVTHSTGRRDLLLPTAKAALAIGADAVMAEVHPDPAVALSDSAQQMDIPEFHRFMEELKGFKNKLS,not soluble
9,MANQIYLFSLICLSVLLCQSYTVSSFQKSLDLAKPCKRFVLHLHDIAYDGDNAANATSAAIVNPLGLGDFSFGKFVIMDDPVTMDQNYLSKPVARVQGFFCYHGKATYDAWIAWTVVFNSTQHKGAFTIMGENPFMEPTRDLPIVGGTGDFIMTRGIATLTTDHIDGSKYFRVKLDIKLYECYH,soluble
10,MANSLRNVNDYDPFKYRPSYFDLEAPTESFALGKFVDAIEVKQMALDAFSESSMVSIATSQLPKTAYTATSFIESEYYSFPYLFNDQKYYWDYFDYKIPAADFAVLELELDLNNQQDQQIKDHFIDPAIKAYKQLGDSTGLFATKPLTEYQNDTHYLLGYPVVPTDHTQLWECKQGAERFSYGYFYSNMARLTKNLRQGDPNAGSKTHIEYSNELLDKDSMDQGIVR,not soluble
11,MANTGSLVLLRHGESDWNALNLFTGWVDVGLTDKGQAEAVRSGELIAEHDLLPDVLYTSLLRRAITTAHLALDSADRLWIPVRRSWRLNERHYGALQGLDKAETKARYGEEQFMAWRRSYDTPPPPIERGSQFSQDADPRYADIGGGPLTECLADVVARFLPYFTDVIVGDLRVGKTVLIVAHGNSLRALVKHLDQMSDDEIVGLNIPTGIPLRYDLDSAMRPLVRGGTYLDPEAAAAGAAAVAGQGRGGVPRGAAALEHHHHHH,soluble
12,MANVLVINFPGEGHINPTLAIISELIRRGETVVSYCIEDYRKKIEATGAEFREFENFLSQINIMERVNEGGSPLTMLSHMIEASERIVTQIVEETKGEQYDYLLYDNHFPVGRIIANVLQLPSISSCTTFAFNQYITFNDEQESRQVDETNPLYQSCLAGMEKWNRQYGMKCNSMYDIMNHPGDITIVYTSKEYQPRSDVFDESYKFVGPSIATRKEVGSFPMEDLKGEKLIFISMGTVFNEQPELYEKCFEAFKGVEATVILAVGKKINISQFENIPNNFKLYNYVPQLEVLQHADVFVTHGGMNSSSEALYYGVPLVVIPVTGDQPLVAKRVNEVGAGIRLNRKELTSELLRETVKEVMYDVTFKENSRKVGESLRNAGGYKRAVDEIFKMKMNSYLKLK,not soluble
13,MANYYEVLGVQASASPEDIKKAYRKLALRWHPDKNPDNKEEAEKKFKLVSEAYEVLSDSKKRSLYDRAGCDSWRAGGGA,soluble
14,MAPDRSGGPAAAELIAGLGLERHPEGGWYRETYRAAGTIPGTLLPGQVGGERSFSTAIYFLLERGDISALHRIRSDELWHFHAGAPLIVHVITPAGGSYALTLGSDPASGETFQAVVPAGCWFGAETTGDYSLVGCTVAPGFDFADFEMGSRADLLGRFPTHAGIIRRLTRDGDLEHHHHHH,not soluble
15,MAPINGIRDDDAASIRLRDSFRDEVSKRMGELLLKGQTMLDEYCPTCSGILMEDRALVRRCVTCELFREKSSVIVGEVSLQDEDLNEAVNNKIPTPAAPVNKPAKKAVLQKSAPAKKKEAVPAAAEPSSSDTIESATTAVLQKLEWATDRLNSTEEVARVMDFLSVIQKSAETLKALRI,not soluble
16,MAPKCWSNLPSDVKREVLEHGDCQQWFNVRLCSRADMNLVDSLKLRIPFLKIQISNTTFSIIIVESPSAILRIDLHQKSGGNAEFSVEIFKNSDLELGNLIKTIENTTLDAEISNLLEKSIFHRKIDIATCQIQADGLQAENPVLAMIHAKFTENAPKKLIFSGKSMEENRFLAKFFENLNIDFVFRSWRKDLSREWGEGMNHLRIKIFEVSKWTTLLGDFEHFTAYDEIEPVMYMARILSRPMKRSHWFPGFHVPVAERLFRQIFRQEMFEKFENHSIRKSPINLKLWIFVKFTKCGISIFVGDPKDFNERDGTCDLEWMCPNCAPKTMENWFFRETIGKLHF,not soluble
17,MAPRDIRPGAEYGDIIEEAIVTCKVFLIVFSETSQISRWVRSELNIGFSSNKPIIPFRIDPTDLKGSMKLMLNDKHWLNAYPNPEEKFSELAAVILDLLQHPAVDTISPPGFQPASNVASADGSNAGAQGLFGKLLNQLFVKRRVKVTSDHAAEIFLNGERKGKLDAYETGNYSVSEDFYQLEVYSCEYGKKVKCEYSGSFSNSSTVIISVDMATAEKQYLMKAKNITSGQINDLGIIFLDEGKFEDAQECFLKAASMGEAAAAYNLGMMYHFGKGVEIDYDVAREYYEEAVKSDYPLALNNLGSIYYNGHGVRKDIAKSFPYFCRAAERGVESAQFTVATMLFYGQGVAVDKAKAKKWFQKAAAQGCKDSQNYLNSWVDD,not soluble
18,MAPVKLYMVEVIDKKEIAANERRSRENDVTGPEITHYYQVTFRLTTDDRKDLVLNIDKSSYQNIEPEMKGRLFMQGSRFVQFETDVPIDEQKLEHHHHHH,soluble
19,MAPVLSKDVADIESILALNPRTQSHAALHSTLAKKLDKKHWKRNPDKNCFHCEKLENNFDDIKHTTLGERGALREAMRCLKCADAPCQKSCPTHLDIKSFITSISNKNYYGAAKMIFSDNPLGLTCGMVCPTSDLCVGGCNLYATEEGSINIGGLQQFASEVFKAMNIPQIRNPCLPSQEKMPEAYSAKIALLGAGPASISCASFLARLGYSDITIFEKQEYVGGLSTSEIPQFRLPYDVVNFEIELMKDLGVKIICGKSLSENEITLNTLKEEGYKAAFIGIGLPEPKTDDIFQGLTQDQGFYTSKDFLPLVAKSSKAGMCACHSPLPSIRGAVIVLGAGDTAFDCATSALRCGARRVFLVFRKGFVNIRAVPEEVELAKEEKCEFLPFLSPRKVIVKGGRIVAVQFVRTEQDETGKWNEDEDQIVHLKADVVISAFGSVLRDPKVKEALSPIKFNRWDLPEVDPETMQTSEPWVFAGGDIVGMANTTVESVNDGKQASWYIHKYIQAQYGASVSAKPELPLFYTPVDLVDISVEMAGLKFINPFGLASAAPTTSSSMIRRAFEAGWGFALTKTFSLDKDIVTNVSPRIVRGTTSGPMYGPGQSSFLNIELISEKTAAYWCQSVTELKADFPDNIVIASIMCSYNKNDWMELSRKAEASGADALELNLSAPHGMGERGMGLACGQDPELVRNICRWVRQAVQIPFFAKLTPNVTDIVSIARAAKEGGADGVTATNTVSGLMGLKADGTPWPAVGAGKRTTYGGVSGTAIRPIALRAVTTIARALPGFPILATGGIDSAESGLQFLHSGASVLQVCSAVQNQDFTVIQDYCTGLKALLYLKSIEELQGWDGQSPGTESHQKGKPVPRIAELMGKKLPNFGPYLEQRKKIIAEEKMRLKEQNAAFPPLERKPFIPKKPIPAIKDVIGKALQYLGTFGELSNIEQVVAVIDEEMCINCGKCYMTCNDSGYQAIQFDPETHLPTVTDTCTGCTLCLSVCPIIDCIRMVSRTTPYEPKRGLPLAVNPVC,soluble
20,MAQFTEEEKTIRRIEKRFNKGMVQYGLIEEGDKVLVGLSGGKDSLALVELLGKRSHIFKPRFSVVAVHVVMKNIPYQSDWDYLREHAEKNGVPLVVYETSFDPSTDTRKSPCFLCSWNRRKALFTVAKEQGCNKIALGHHMDDILETLLMNITYQGAFSTMPPRLVMNKFDMTIIRPMCLVHEADLLELAQIRGYRKQVKNCPYESQSSRSDMKGILRQLEKMNPEARYSLWGSMTNVQEELLPKEVEF,not soluble
21,MAQIIDFFAAFRGYYSDGSTFIQIISLGSHHNLSVHISERMLSESGIKLGNFLSATVSLAEHPKNFQLKRLNLQVTVEGNFAKVHGIEANLEKNADGILVFSTNNFASAKATNQGLEIGRYKITVQAVKPSEKDLFNGMKFFGTVEEKISGLTRRVASNNTNQVIGEGFRNMSISGKRTVS,not soluble
22,MAQKKGRESDSVAEGLRPAEEGDVLELDECWTYVRERANKRWLWVALCRRTRQVVAFVIGDRSARTCARLWSRIPEEYRQGRSFSDFWKSYRPVFAGDPSHRQVGKSSGEMAHVERFFGRLRQKLARYVRRTRAASESERMLHLTTKLFVEWYNEAIT,not soluble
